Assay results as given in patent US20170296617.

How the values were obtained:
[1] = target: T1, Pep25-P2 (ERTYSPS)
T1 chain: ERTYSPS

[2] = target: T2, peptide25 (ERTYSPSTAVRS)
T2 chain: ERTYSPSTAVRS

B1: ROCK1 (protein)
chain: MSTGDSFETRFEKMDNLLRDPKSEVNSDCLLDGLDALVYDLDFPALRKNKNIDNFLSRYKDTINKIRDLRMKAEDYEVVKVIGRGAFGEVQLVRHKSTRKVYAMKLLSKFEMIKRSDSAFFWEERDIMAFANSPWVVQLFYAFQDDRYLYMVMEYMPGGDLVNLMSNYDVPEKWARFYTAEVVLALDAIHSMGFIHRDVKPDNMLLDKSGHLKLADFGTCMKMNKEGMVRCDTAVGTPDYISPEVLKSQGGDGYYGRECDWWSVGVFLYEMLVGDTPFYADSLVGTYSKIMNHKNSLTFPDDNDISKEAKNLICAFLTDREVRLGRNGVEEIKRHLFFKNDQWAWETLRDTVAPVVPDLSSDIDTSNFDDLEEDKGEEETFPIPKAFVGNQLPFVGFTYYSNRRYLSSANPNDNRTSSNADKSLQESLQKTIYKLEEQLHNEMQLKDEMEQKCRTSNIKLDKIMKELDEEGNQRRNLESTVSQIEKEKMLLQHRINEYQRKAEQENEKRRNVENEVSTLKDQLEDLKKVSQNSQLANEKLSQLQKQLEEANDL
B1 was tested, and the “[S6] phosphorylation ratio (pS6 peak area over pS6 plus S6), mass spectrometry of the ROCK reaction with substrate S6” value [1] was “ratio falls with the dose: about 31 at 1 uM, about 29 at 10 uM, about 22 at 30 uM, about 18 at 100 uM; no lower plateau, less than half suppressed at 100 uM; the pS6 peak near m/z 3710 shrinks from 1 uM to 100 uM in the four spectra” and the “conversion ratio of phosphorylated S6 substrate (mass spectrometry)” value [1] was “Pep25-P2 repressed the phosphorylation of substrate S6 by ROCK”.

B2: MBP-ROCK1 (ROCK1 catalytic domain linked to maltose binding protein) (protein)
chain: MSTGDSFETRFEKMDNLLRDPKSEVNSDCLLDGLDALVYDLDFPALRKNKNIDNFLSRYKDTINKIRDLRMKAEDYEVVKVIGRGAFGEVQLVRHKSTRKVYAMKLLSKFEMIKRSDSAFFWEERDIMAFANSPWVVQLFYAFQDDRYLYMVMEYMPGGDLVNLMSNYDVPEKWARFYTAEVVLALDAIHSMGFIHRDVKPDNMLLDKSGHLKLADFGTCMKMNKEGMVRCDTAVGTPDYISPEVLKSQGGDGYYGRECDWWSVGVFLYEMLVGDTPFYADSLVGTYSKIMNHKNSLTFPDDNDISKEAKNLICAFLTDREVRLGRNGVEEIKRHLFFKNDQWAWETLRDTVAPVVPDLSSDIDTSNFDDLEEDKGEEETFPIPKAFVGNQLPFVGFTYYSNRRYLSSANPNDNR
In the case of B2, the “ROCK autophosphorylation under high ATP levels (1 mM)” value [2] is reported as “blocked ROCK autophosphorylation”.
